In US20170260534A1 (ANAEROPHARMA SCIENCE, published 2017):
Substitutions are numbered along the chain they refer to. Names and notes keep the numbering of the source. Each block holds one binder with its values, some of them ahead of it.

Legend:
[1] = target: T1, Recombinant Human CTLA-4-Fc Chimera (BioLegend) (human, UniProt P16410 36-161, limits assumed); test: ELISA, antigen-Fc immobilized, scFv at 1 ng/mL
T1 construct: Bought reagent; also called hCTLA-4; hCTLA-4 immobilized; not shown: human IgG1 Fc
T1 sequence (looked up): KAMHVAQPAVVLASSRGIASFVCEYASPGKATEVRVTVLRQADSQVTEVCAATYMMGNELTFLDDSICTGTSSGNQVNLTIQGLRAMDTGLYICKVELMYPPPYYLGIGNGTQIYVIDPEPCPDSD
Procedure: (§1) After the liquid was removed, 1×PBS (350 μL) for each was dispensed and the liquid was removed. This operation was repeated three times for washing. To each of the plates, 1% BSA solution (350 μL) was dispensed at room temperature and incubated for 2 hours for blocking. After the liquid was removed, 1×PBS (350 μL) for each was dispensed and the liquid was removed. This operation was repeated three times for washing.
(§2) To blank wells, the signal enhancing reagent alone was dispensed in an amount of 100 μL. […] After the liquid was removed, 1×PBS (350 μL for each) was dispensed and the liquid was removed. This operation was repeated three times for washing.
(§3) The plates were shielded from light and incubated at room temperature for 20 minutes. […] Absorbance was measured at 450 nm and 570 nm (reference wavelength).

[2] = target: T2, mPD-1 (Fc Chimera, R&D Systems) (mouse, UniProt Q02242 25-167); test: ELISA, antigen-Fc immobilized, scFv at 1 ng/mL
T2 construct: Species read from the label mPD-1 only; also called mPD-1 immobilized; Fc part of the bought chimera not given
T2 sequence (looked up): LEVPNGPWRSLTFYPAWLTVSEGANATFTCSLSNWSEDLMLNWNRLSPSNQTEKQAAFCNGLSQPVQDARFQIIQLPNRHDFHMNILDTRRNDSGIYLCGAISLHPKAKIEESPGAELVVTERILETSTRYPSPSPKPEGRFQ
Procedure: as §1, §2, §3

[3] = target: T1, Recombinant Human CTLA-4-Fc Chimera …; test: ELISA, antigen-Fc immobilized, scFv at 10 ng/mL
Procedure: as §1, §2, §3

[4] = target: T2, mPD-1 (Fc Chimera, R&D Systems); test: ELISA, antigen-Fc immobilized, scFv at 10 ng/mL
Procedure: as §1, §2, §3

[5] = target: T1, Recombinant Human CTLA-4-Fc Chimera …; test: ELISA, antigen-Fc immobilized, scFv at 100 ng/mL
Procedure: as §1, §2, §3

[6] = target: T2, mPD-1 (Fc Chimera, R&D Systems); test: ELISA, antigen-Fc immobilized, scFv at 100 ng/mL
Procedure: as §1, §2, §3

[7] = target: T1, Recombinant Human CTLA-4-Fc Chimera …; test: ELISA, antigen-Fc immobilized, scFv at 1000 ng/mL
Procedure: as §1, §2, §3

[8] = target: T2, mPD-1 (Fc Chimera, R&D Systems); test: ELISA, antigen-Fc immobilized, scFv at 1000 ng/mL
Procedure: as §1, §2, §3

[9] = target: T1, Recombinant Human CTLA-4-Fc Chimera …; test: SPR (Biacore), Fc-fused hCTLA-4 captured by anti-human IgG (Fc), scFv as analyte, single cycle kinetics
Procedure: The binding kinetic parameter of each hCTLA-4scFv01-FLAG purified to hCTLA-4 (fusion protein with human IgG1Fc) was measured by surface plasmon resonance using Biacore system (manufactured by GE Healthcare). To a substrate having a carboxyl methyl dextran-coated gold membrane, a mouse anti-human IgG (Fc) monoclonal antibody (manufactured by GE Healthcare) was bound in accordance with amine coupling, and Fc-fused recombinant hCTLA-4 (Biolegend) was captured as a ligand. As an analyte, scFv purified was used. Samples of scFv having a concentration of 0.7404, 2.2222, 6.6667, 20 and 60 nM were prepared and sequentially subjected to binding in order of increasing concentration in accordance with single cycle kinetics. Data obtained were analyzed by BIA evaluation software (manufactured by GE Healthcare).
The binding kinetic parameter to hCTLA-4 (fusion protein with human IgG1Fc) was measured by surface plasmon resonance using Biacore system. Thereafter, analysis was carried out in the same manner as in Example 29.

[10] = target: T3, human PD-1 overexpressed on HEK293T cells (human, UniProt Q15116 25-288); test: flow cytometry on HEK293T cells overexpressing hPD-1; anti-hCTLA-4scFv01-FLAG purified from PC4, used as in Example 24 (biotinylated Protein L and Brilliant Violet 421 Streptavidin) [d]
T3 construct: whole, on cells; also called hPD-1 expressing cells; human PD-1 overexpressing cell
T3 sequence (Q15116 25-288): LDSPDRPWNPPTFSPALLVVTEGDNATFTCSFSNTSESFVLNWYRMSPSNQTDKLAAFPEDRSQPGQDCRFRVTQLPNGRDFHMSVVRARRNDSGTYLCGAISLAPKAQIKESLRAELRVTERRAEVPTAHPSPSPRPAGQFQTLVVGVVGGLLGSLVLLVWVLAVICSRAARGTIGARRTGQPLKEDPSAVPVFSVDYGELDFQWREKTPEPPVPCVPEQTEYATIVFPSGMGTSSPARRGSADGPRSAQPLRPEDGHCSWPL

B2: anti-hCTLA-4scFv01 (not tagged) of single-expression strain C1TLB (scFv)
scFv: ATLTPQVQLVESGGGVVQPGRSLRLSCAASGFTFSSYGMHWVRQAPGKGLEWVAVIWYDGSNKYYADSVKGRFTISRDNSKNTLYLQMNSLRAEDTAVYYCARDPRGATLYYYYYGMDVWGQGTTVTVSSGGGGSGGGGSGGGGSDIQMTQSPSSLSASVGDRVTITCRASQSINSYLDWYQQKPGKAPKLLIYAASSLQSGVPSRFSGSGSGTDFTLTISSLQPEDFATYYCQQYYSTPFTFGPGTKVEIK
notes: Plasmid pC1TLB; PC4TL and PC6TL secrete the same scFv; Signal peptide SP50 left out; also called scFv derived from C1TLB strain; anti-hCTLA-4scFv01 in culture supernatants of PC4TL and PC6TL
Kd [9]: 1.48 nM
koff [9]: 0.00098 s⁻¹
kon [9]: 661000 M⁻¹ s⁻¹

B3: anti-hCTLA-4scFv01 (not tagged) of single-expression strain C2TLB (scFv)
scFv: AQVQLVESGGGVVQPGRSLRLSCAASGFTFSSYGMHWVRQAPGKGLEWVAVIWYDGSNKYYADSVKGRFTISRDNSKNTLYLQMNSLRAEDTAVYYCARDPRGATLYYYYYGMDVWGQGTTVTVSSGGGGSGGGGSGGGGSDIQMTQSPSSLSASVGDRVTITCRASQSINSYLDWYQQKPGKAPKLLIYAASSLQSGVPSRFSGSGSGTDFTLTISSLQPEDFATYYCQQYYSTPFTFGPGTKVEIK
notes: Plasmid pC2TLB; PC2TL and PC7TL secrete the same scFv; Signal peptide SP67 left out; also called scFv derived from C2TLB strain; anti-hCTLA-4scFv01 in culture supernatants of PC2TL and PC7TL
Kd [9]: 0.98 nM
koff [9]: 0.000961 s⁻¹
kon [9]: 981000 M⁻¹ s⁻¹

B4: anti-hCTLA-4scFv01 (not tagged) of single-expression strain C3TLB (scFv)
scFv: B3 scFv with A1D
notes: Plasmid pC3TLB; PC3TL, PC5TL and PC8TL secrete the same scFv; Signal peptide SP68 left out; also called scFv derived from C3TLB strain; anti-hCTLA-4scFv01 in culture supernatants of PC3TL, PC5TL and PC8TL
Kd [9]: 1.29 nM
koff [9]: 0.000996 s⁻¹
kon [9]: 773000 M⁻¹ s⁻¹

B6: anti-hCTLA-4scFv01-FLAG purified from single-expression strain C2F (scFv)
scFv: AQVQLVESGGGVVQPGRSLRLSCAASGFTFSSYGMHWVRQAPGKGLEWVAVIWYDGSNKYYADSVKGRFTISRDNSKNTLYLQMNSLRAEDTAVYYCARDPRGATLYYYYYGMDVWGQGTTVTVSSGGGGSGGGGSGGGGSDIQMTQSPSSLSASVGDRVTITCRASQSINSYLDWYQQKPGKAPKLLIYAASSLQSGVPSRFSGSGSGTDFTLTISSLQPEDFATYYCQQYYSTPFTFGPGTKVEIKDYKDDDDK
notes: Plasmid pP30SP67L1-hCTLA-4scFv01-FLAG (pC2F); PC2 and PC7 secrete the same scFv; Signal peptide SP67 left out; also called scFv derived from C2F strain
Kd [9]: 2.28 nM
koff [9]: 0.00103 s⁻¹
kon [9]: 452000 M⁻¹ s⁻¹

Continued, values first:

OD value [1]: -0.062 OD
OD value [2]: -0.059 OD
OD value [3]: -0.055 OD
OD value [4]: -0.057 OD
OD value [5]: -0.018 OD
OD value [6]: -0.049 OD
OD value [7]: 0.341 OD
OD value [8]: 0.107 OD
B1: anti-hPD-1scFv03 purified from the culture supernatant of co-expression strain PC1 (scFv)
scFv: DSAQTSAVVSSRSFPKASSVQVQLVESGGGVVQPGRSLRLDCKASGITFSNSGMHWVRQAPGKGLEWVAVIWYDGSKRYYADSVKGRFTISRDNSKNTLFLQMNSLRAEDTAVYYCATNDDYWGQGTLVTVSSGGGGSGGGGSGGGGSEIVLTQSPATLSLSPGERATLSCRASQSVSSYLAWYQQKPGQAPRLLIYDASNRATGIPARFSGSGSGTDFTLTISSLEPEDFAVYYCQQSSNWPRTFGQGTKVEIKHHHHHH
notes: Secreted from the cassette SP7L20-anti-hPD-1scFv03-His tag; also called anti-PD-1scFv03

Kd [9]: 1.08 nM
koff [9]: 0.000996 s⁻¹
kon [9]: 918000 M⁻¹ s⁻¹
binding result [10]: no binding (tested: 1 ug/mL)
B5: anti-hCTLA-4scFv01-FLAG purified from single-expression strain C1F or from co-expression strain PC4 (scFv)
scFv: ATLTPQVQLVESGGGVVQPGRSLRLSCAASGFTFSSYGMHWVRQAPGKGLEWVAVIWYDGSNKYYADSVKGRFTISRDNSKNTLYLQMNSLRAEDTAVYYCARDPRGATLYYYYYGMDVWGQGTTVTVSSGGGGSGGGGSGGGGSDIQMTQSPSSLSASVGDRVTITCRASQSINSYLDWYQQKPGKAPKLLIYAASSLQSGVPSRFSGSGSGTDFTLTISSLQPEDFATYYCQQYYSTPFTFGPGTKVEIKDYKDDDDK
notes: Plasmid pP30SP50L5-hCTLA-4scFv01-FLAG (pC1F) and pPC4; PC4 and PC6 secrete the same scFv as C1F; Signal peptide SP50 left out; also called scFv derived from C1F strain; hCTLA-4scFv01-FLAG purified from PC4 strain

Kd [9]: 2.97 nM
koff [9]: 0.00103 s⁻¹
kon [9]: 347000 M⁻¹ s⁻¹
B7: anti-hCTLA-4scFv01-FLAG purified from single-expression strain C3F (scFv)
scFv: B6 scFv with A1D
notes: Plasmid pP30SP68L1-hCTLA-4scFv01-FLAG (pC3F); PC3, PC5 and PC8 secrete the same scFv; also called scFv derived from C3F strain
